10 molecules from patent publication US20230303681A1 (published 2023) can be followed below.

Positions count from the first letter of the chain named. Several values for one entry are separate records, joined by “and”; a condition that tells them apart may be missing. Identical values can stand only once.

For experiment [1], the target named is T1, human TMEM106B (human, UniProt Q9NUM4 2-274).
T1 construct: Full-length, on transiently transfected HEK293 cells, or natively expressed on HeLa, U251 and A549 cells; also called huTMEM106B; huTMEM
As to the kind of experiment: FACS A549, 1 ug/ml.

The target of experiment [2] is T1, human TMEM106B. Put plainly: FACS HeLa.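 Further: flow cytometry of cells incubated with hybridoma supernatant or purified antibody at 10 µg/ml for 1 h on ice, propidium iodide–positive dead cells gated out.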
Experiment [3] has as its target T2, mouse TMEM106B (mouse, UniProt Q80X71 2-275).
T2 construct: on transiently transfected HEK293 cells, or natively expressed on mouse Neuro2a cells; also called moTMEM106B; murine TMEM106B
Put plainly: FACS Neuro2a.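 Further: flow cytometry of cells stained with antibody or hybridoma supernatant (purified antibody at 10 µg/ml) for 1 h on ice, propidium iodide–positive dead cells gated out.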
Protocol: (§1) All cells were cultured in either T75 or T150 flasks. […] The enzyme was quenched by addition of fresh media, and the cells were then distributed into 96-well plates for FACS analysis.
(§2) FACS analysis was performed as follows. Each cell type was aliquoted in 96-well round bottom plates (2x10^5 cells per well), washed once with FACS buffer (PBS + 2% FBS + 1 mM EDTA), and incubated with 50 µL of hybridoma supernatant or purified antibody (10 µg/ml in FACS buffer) on ice for 1 hour. […] Following this secondary incubation, the cells were again washed 2x with ice-cold FACS buffer and resuspended in a final volume of 50 µL of FACS buffer + 0.25 µl/well propidium iodide (Fisher Scientific # BDB556463). Analysis was performed on a FACSCanto system (BD Biosciences) or iQue (Intellicyt), with sort gates drawn to exclude dead (i.e., propidium iodide positive) cells.
(§3) Data is presented as mean fluorescence intensity (MFI).

The target of experiment [4] is T1, human TMEM106B. As to the kind of experiment: FACS HEK+huTMEM, 10 ug/ml.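 Further: purified mouse IgG antibodies at 10 µg/ml bound to HEK293 cells transiently expressing human TMEM106B, measured by flow cytometry as median fluorescence intensity of propidium iodide negative live cells.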
The target in experiment [5] is T3, GST-fusion human TMEM106B truncated (human).
T3 construct: also called GST-TMEM106B-truncated protein; GST-TMEM106B (truncated)
As to the kind of experiment: array SPR, Ab immobilised.
Protocol: Binding kinetic characterization of the purified antibodies was performed by Carterra using a proprietary array SPR instrument (MX-96) as follows. Briefly, antibodies were prepared by diluting to 5 µg/ml in 10 mM Acetate, pH 4.5 (Carterra), at 150 µL/well and then made an additional dilution at 1:10 from there by titrating 11 µl into 100 µL. […] The chip was activated with 18 mM EDC (Sigma Bioxtra) and 4.5 mM S-NHS (Thermo Fisher) diluted in 100 mM MES, pH 5.5, for 7 minutes, and then antibodies were coupled for 10 minutes at 45 µL/minute. After coupling, the chip was returned to the MX-96 and quenched for 7 minutes using 1 M Ethanolamine pH 8.5 (Carterra).
Printed antibodies were profiled for their ability to bind GST-TMEM106B (truncated) protein (described above). Briefly, GST-TMEM106B (truncated) antigen was diluted to 18 µg/ml (500 nM of 36 kDa fusion protein) by mixing 2.7 µL of 2.0 mg/ml antigen into 298 µL Running buffer (HBS-EP+, Teknova with 1 mg/ml BSA, Sigma), and titrated 50 µl into 200 µl for 5-fold serial dilutions. In addition, binding to GST (Pierce) was assayed under the same conditions to determine the extent of any nonspecific binding of the anti-TMEM106B antibodies to GST portion of the TMEM106B-GST fusion protein. Duplicate measurements for each anti-TMEM106B antibody were taken to ensure reproducibility.

For experiment [6], the target named is T1, human TMEM106B. As to the kind of experiment: FACS U251.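 Further: flow cytometry of cells exposed to antibody (purified at 10 µg/mL, or hybridoma supernatant) for 1 h on ice, with propidium iodide-positive dead cells gated out.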
For experiment [7], the target named is T1, human TMEM106B. As to the kind of experiment: FACS HEK+huTMEM, 1.0 ug/ml.
Protocol: Purified anti-TMEM106B antibodies were evaluated for their binding affinity to various TMEM106B-expressing cell lines including HEK293 transiently transfected with human/cyno/mouse TMEM106B, as well as HeLa cells and A549 cells. Antibodies tested for this experiment were mouse IgGs purified from hybridoma supernatant. Affinity binding to cells was determined as follows. Briefly, 1x10^5 cells were aliquoted per well in 96-well round bottom plates and incubated with 50 µL of purified anti-TMEM106B antibody at various concentrations (10x dilutions starting at 10 µg/ml) in FACS buffer (PBS + 2% FBS + 1 mM EDTA). […] Sorting was performed on a iQue (Intellicyt), with sort gates drawn to exclude dead (propidium iodide +) cells. Binding data was analyzed using median fluorescent intensity (MFI) and graphed in Prism. Values presented are MFI.
Experiment [8] deals with T1, human TMEM106B. Put plainly: FACS A549, 10 ug/ml.
Experiment [9] concerns the target T1, human TMEM106B. As to the kind of experiment: FACS A549.
Protocol: as §1, §2, §3
The target of a further experiment is T4, GST (Pierce) (UniProt P08515 1-218 = GST, limits assumed).
T4 construct: control for the GST part of the fusion protein; also called GST protein; Glutathione-S-transferase
Put plainly: array SPR, Ab immobilised.

The target of experiment [10] is T1, human TMEM106B. As to the kind of experiment: FACS HEK+huTMEM, 0.01 ug/ml.
Experiment [11] concerns the target T1, human TMEM106B. As to the kind of experiment: FACS HEK+huTMEM, 0.1 ug/ml.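 Further: flow cytometry binding of purified mouse IgG antibodies to HEK293 cells transiently expressing TMEM106B, read as median fluorescence intensity with propidium iodide positive dead cells gated out.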
In experiment [12] the target is T1, human TMEM106B. As to the kind of experiment: FACS, HEK293 transfectants. On the technique in general: Flow cytometry measures light scatter and fluorescence of single cells or particles in a stream.
Protocol: Initial screening of the anti-TMEM106B hybridomas was performed as follows.
For screening of the hybridoma cell culture supernatants, humanTMEM106B-transfected HEK293 cells were aliquoted in 96-well round bottom plates (2x10^5 cells per well) and incubated with 50 µL of hybridoma cell culture supernatant on ice for 30 minutes. […] Cell sorting was performed on a FACS Canto system (BD Biosciences) or iQue (Intellicyt), with sort gates drawn to exclude dead (i.e., propidium iodide-positive) cells. Median fluorescence intensity (MFI) of anti-mouse-APC MFI on TMEM106B+ HEK293 cells was calculated for each clone, and those displaying a signal of at least 2-fold over background compared to a secondary-antibody only well were taken forward for further analysis and characterization.
For experiment [13], the target named is T1, human TMEM106B. As to the kind of experiment: FACS, HEK293 transfectants. The source holds these as a separate data set.
Protocol: (§4) For screening of the hybridoma cell culture supernatants, humanTMEM106B-transfected HEK293 cells were aliquoted in 96-well round bottom plates (2x10^5 cells per well) and incubated with 50 µL of hybridoma cell culture supernatant on ice for 30 minutes. […] Median fluorescence intensity (MFI) of anti-mouse-APC MFI on TMEM106B+ HEK293 cells was calculated for each clone, and those displaying a signal of at least 2-fold over background compared to a secondary-antibody only well were taken forward for further analysis and characterization.
Experiment [14] deals with T2, mouse TMEM106B. As to the kind of experiment: FACS, HEK293 transfectants.
Protocol: as §4
Experiment [15] addresses T5, cynomolgus (cyno) TMEM106B (cynomolgus, UniProt Q9NUM4 2-274 (human entry)).
T5 construct: on transiently transfected HEK293 cells
As to the kind of experiment: FACS, HEK293 transfectants.
Protocol: as §4
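Wherever Kd is given: antibodies amine-coupled on an MX-96 chip, antigen flowed at 500 nM top concentration in 5-fold serial dilutions, GST alone run as nonspecific-binding control, duplicate measurements.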
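Wherever fold over negative controls is given: hybridoma supernatants incubated 30 min on ice with human TMEM106B-expressing HEK293 cells, binding read as anti-mouse-APC median fluorescence on live cells, relative to secondary-antibody-only wells.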
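Wherever fold-change over parental HEK293 is given: flow cytometry binding of hybridoma supernatants to HEK293 cells transiently expressing human, cyno or mouse TMEM106B, read as anti-mouse-APC median fluorescence, live cells only, 30 min on ice.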
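Wherever koff is given: antibodies amine-coupled on an MX-96 chip, antigen flowed at 500 nM top concentration in 5-fold serial dilutions, GST alone run as nonspecific-binding control, duplicate measurements.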
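Wherever kon is given: antibodies amine-coupled on an MX-96 chip, antigen flowed at 500 nM top concentration in 5-fold serial dilutions, GST alone run as nonspecific-binding control, duplicate measurements.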

B1: anti-TMEM106B antibody TM-42 (antibody, V domains shown)
VH: QVQLQQSGAELAKPGASVKLSCKASGYTFTNYWMHWVKKRPGQGLEWIGYINPSSGYTKYNQKFKDKATLTADKSSNTAYMQLSSLTYEDSAVYYCTREGGSISDWYFDVWGTGTTVTVSS
VL: DIVMTQAAPSLPVTPGESVSISCRSSKSLLHSNGNTYLYWFLQRPGQSPQLLIYRMSNLASGVPDRFSGSGSGTAFTLRISRVEAEDVGVYYCMQHLEYPYTFGGGTKLEIK
As usually defined, the Kd is the constant that tells how readily two partners part at equilibrium. A low value points to a tighter complex. As to B1, the MFI with human TMEM106B [1] came out at 1780; with human TMEM106B [2], 215; with mouse TMEM106B [3], 237; in the experiment with human TMEM106B [4], 60100; with human TMEM106B [6], 326; with human TMEM106B [7] it was 58100. Further, the MFI with human TMEM106B [8] was 3300; in the experiment with human TMEM106B [9], 947; in the experiment with human TMEM106B [10], 2070; with human TMEM106B [11] it was 16700. Further, the Kd in [5] was 33 nM and 24 nM. Also, the binding result with GST (Pierce) is recorded as “no binding”.

B2: anti-TMEM106B antibody TM-39 (antibody, V domains shown)
VH: HVQRQQSGTELAKPGASVKLSCKTSGYTFTDYWMHWIKQRPGQGLEWIGFINPSSGYTKYNQNFKDKATLTADKSSSTAYMQLSSLTYEDSAVFYCAREAGSISDWYFDVWGTGTTVTVSS
VL: B1 VL with L11I, S28T, H31N, S48P, E98D, K108Q
A word on the koff: it is the first-order rate constant of dissociation. Higher therefore signals a short-lived complex. By kon is commonly meant a measure of how fast the partners come together. Lower therefore signals slower complex formation. Consider B2, for which the MFI with human TMEM106B [1] was 3610; with human TMEM106B [4], 51900; in the experiment with human TMEM106B [7], 55600; in the experiment with human TMEM106B [8] it was 5330; with human TMEM106B [10], 3850; with human TMEM106B [11] it was 19200. Further, the “fold over negative controls” value in the experiment with human TMEM106B [12] was over 2 fold. For the same molecule, in [5], the Kd is 4.1 nM and 2.2 nM. Besides, the off-rate (koff) in experiment [5] is 5.8e-05 s⁻¹ and 3e-05 s⁻¹. In experiment [5], this molecule had a kon of 14000 M⁻¹ s⁻¹. For the same molecule, in the experiment with GST (Pierce), the binding result is reported as “no binding”.

B3: anti-TMEM106B antibody TM-45 (antibody, V domains shown)
VH: B1 VH
VL: B1 VL
Consider B3, for which the MFI with human TMEM106B [1] came out at 1860; with human TMEM106B [2], 191; with mouse TMEM106B [3] it was 187; in the experiment with human TMEM106B [4], 58100; with human TMEM106B [6], 517; with human TMEM106B [7], 57600. Besides, the MFI was 3240 in the experiment with human TMEM106B [8], 819 with human TMEM106B [9], 2500 in the experiment with human TMEM106B [10] and 21300 with human TMEM106B [11]. For the same molecule, the Kd in experiment [5] was 19 nM and 18 nM. The binding result with GST (Pierce) is on record as “no binding”.

B4: anti-TMEM106B antibody TM-37 (antibody, V domains shown)
VH: B1 VH with N31S, K39Q, I51V, Y60N, A68V, N77S, T97A
VL: B1 VL with L11V, L38S
For B4, the MFI with human TMEM106B [1] turned out to be 2980; with human TMEM106B [2], 254; in the experiment with mouse TMEM106B [3] it was 208; with human TMEM106B [4], 50500; with human TMEM106B [6], 408; in the experiment with human TMEM106B [7], 58700. In addition, the MFI in the experiment with human TMEM106B [8] was 4210; with human TMEM106B [9], 1040; with human TMEM106B [10] it was 3920; with human TMEM106B [11] it was 29400. Further, the Kd in [5] was 2.6 nM and 6.3 nM. Moreover, in the experiment with GST (Pierce), the binding result was “no binding”.

B5: anti-TMEM106B antibody TM-34 (antibody, V domains shown)
VH: EVQLVESGGGLVKPGGSLKLSCAASGFSFSDSGMDWVRQAPEKGLEWFAYISSGSSTTHYADTVKGRFIISRDNAKNTLFLQMTSLRSEDTAMYYCVRRDGNYWYFDVWGTGTTVTVSS
VL: QIVLSQSPVILSASPGEKVTMTCRATSSVTYMHWYQLKPGSSPKPWIYATSNLASGVPARFSGSGSGTSYSLTISRVEAEDAATYYCQQWSSNPYTFGGGTKLEIK
With B5, in the experiment with GST (Pierce), the binding result is “no binding”.

B6: anti-TMEM106B antibody TM-51 (antibody, V domains shown)
VH: QVQLQQPGAELVKPGASVKLSCKASGYTFTTYWIDWVKQRPGQGLEWIGNMFPGSSRTNYNEKFKSRATLTVDTSSSTAYMQLSSLTSDDSAVYYCARKEGLWTYGYDGGAWFAYWGQGTLVTVSA
VL: DIVMSQSPSSLAVSVGEKVTMSCKSSQSLRNSRTRKNYLAWYQQKPGQSPKLLIYWASTRESGVPDRFTGSGSGTDFTLTISSVQAEDLAIYYCKQSYNLLTFGAGTKLELK
notes: mouse IgG from hybridoma
For B6, in the experiment with GST (Pierce), the binding result is listed as “no binding”.

B7: anti-TMEM106B antibody TM-46 (antibody, V domains shown)
VH: QVQLQQSGADLVKPGASVKISCKASGYAFSSFWMNWVKLRPGKGLEWIGQIYPGDGDTDYNGKFKDKATLTADTSSNTAYMQLSRLTSEDSAVYFCARGDGFSYFDYWGQGTILTVSS
VL: QIVLTQSPVIMSASPGERVTMTCCASSRVNYMHWYQQKSGSYPKRWIYDTSKLASGVPGRFSGSGSGTSYSLTISSMEAEDAATYYCQQWSSNPPTFGGGTKLEIK
On to B7, for which the binding result in the experiment with GST (Pierce) is reported as “no binding”.

B8: anti-TMEM106B antibody TM-35 (antibody, V domains shown)
VH: QVQLQQSGPELVRPGTSVKISCKAPGYTFTRHWMQWVRQRPGQGLEWIGEILPGSNNIYYNEKVKGKATLTVDTSSSTSYMQLSSLTSEDSAVYFCARSLYDYDGVFAYWGQGTLVTVSA
VL: DVLMTQIPLSLPVSLGDQASISCRSSQSIVHRNGNTYLEWYLQKPGQSPKLLIYKVSNRFSGVPDRFSGSGSGTDFTLKISRVEAEDLGVYYCFQGSHVPYTFGGGTKLEIK
Turning to B8, the MFI in the experiment with human TMEM106B [1] worked out at 3270; with human TMEM106B [2], 241; with mouse TMEM106B [3], 181; with human TMEM106B [4], 48700; with human TMEM106B [6] it was 370; with human TMEM106B [7], 55400. For the same molecule, the MFI with human TMEM106B [8] came to 4200; with human TMEM106B [9], 982; in the experiment with human TMEM106B [10], 4080; with human TMEM106B [11] it was 22600. Moreover, in the experiment with human TMEM106B [12], the “fold over negative controls” value is over 2 fold. Besides, the entries for the “fold-change over parental HEK293” value (with human TMEM106B [13]; with mouse TMEM106B [14]; in experiment [15]) were 11.5 fold, 1.04 fold and 14.7 fold, respectively. Moreover, the Kd in [5] was 6 nM and 6.8 nM. The koff in [5] was 9e-05 s⁻¹ and 0.00011 s⁻¹. In addition, the kon in experiment [5] was 15000 M⁻¹ s⁻¹ and 16000 M⁻¹ s⁻¹. Further, the binding result in the experiment with GST (Pierce) is on record as “no binding”.

B9: anti-TMEM106B antibody TM-48 (antibody, V domains shown)
VH: QVQLQQSGPELVKPGASVKLSCKASGYTFTSYDINWVKQRPGQGLEWIGWIYPRDGNTQYIEKLKGKATLTVDTSSSTAYMELHSLTSEDSAVYFCARWIFYAMDYWGQGTSVTVSS
VL: B8 VL with I7T, D17N, R32G, V99L
Turning to B9, the MFI with human TMEM106B [1] came to 1580; with human TMEM106B [2], 219; in the experiment with mouse TMEM106B [3], 292; in the experiment with human TMEM106B [4] it was 38200; with human TMEM106B [6], 346; with human TMEM106B [7], 39900. Besides, the MFI with human TMEM106B [8] turned out to be 2450; with human TMEM106B [9] it was 677; in the experiment with human TMEM106B [10], 4050; with human TMEM106B [11], 21600. For the same molecule, the “fold over negative controls” value in the experiment with human TMEM106B [12] is over 2 fold. Also, the “fold-change over parental HEK293” value in the experiment with human TMEM106B [13] worked out at 16.7 fold; with mouse TMEM106B [14], 28.5 fold; in experiment [15] it was 16.4 fold. Also, the Kd in experiment [5] is 3.1 nM and 3.9 nM. Further, the koff in [5] was 5.3e-05 s⁻¹ and 5.6e-05 s⁻¹. For the same molecule, the association rate constant (kon) in experiment [5] was 17000 M⁻¹ s⁻¹ and 14000 M⁻¹ s⁻¹. For the same molecule, the binding result with GST (Pierce) is “no binding”.

B10: anti-TMEM106B antibody TM-47 (antibody, V domains shown)
VH: QVQLKESGPVLVAPSQSLSITCTVSGFSLTNYGVHWVRQPPGKGLEWLGVIWAGGNTNYNSALMSRLSISKDNSKSQVFLKMNSLQTDDTAMYYCAKEAKLLRSYAMDYWGQGTSVTVSS
VL: DIVMTQSPSSLTVTAGEKVTMSCKSSQSLLNSGNQKNYLTWYQQKPGQPPKLLIYWASTRESGVPDRFTGSGSGTDFTLTISSVQAEDLAVYYCQNDYSYPLTFGAGTKLEIK
notes: mouse IgG from hybridoma
On to B10, for which the binding result with GST (Pierce) was “no binding”.
